# Results: US20110190477A1 (G2 INFLAMMATION, published 2011)
# “And” between values parts separate entries of the source, which are not always exact repeats. Identical values can stand only once. No end group written: not given here. *: point of attachment. Biotin = O=C1N[C@H]2[C@H](CS[C@H]2CCCCC(=O)*)N1
# T1: human C5a receptor (human, UniProt P21730 1-350)
# T1 construct: On human neutrophils, L1.2/hC5aR transfectants or neutrophils of hC5aR knock-in mice; also called hC5aR; C5aR1
# T1 chain: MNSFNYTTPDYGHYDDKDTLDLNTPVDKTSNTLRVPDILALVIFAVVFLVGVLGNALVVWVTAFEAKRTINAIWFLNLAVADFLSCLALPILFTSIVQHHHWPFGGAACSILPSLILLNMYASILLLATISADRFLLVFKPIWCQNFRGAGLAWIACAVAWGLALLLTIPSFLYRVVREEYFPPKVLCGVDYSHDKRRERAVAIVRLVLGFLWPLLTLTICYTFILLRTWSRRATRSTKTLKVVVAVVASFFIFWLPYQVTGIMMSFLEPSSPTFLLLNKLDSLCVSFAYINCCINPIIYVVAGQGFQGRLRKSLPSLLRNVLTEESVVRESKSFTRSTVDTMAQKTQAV
# T2: peptide PEP1 (residues 9-29 of human C5aR) (human)
# T2 construct: Coated directly on a MaxiSorp plate; also called N-terminal 9-29 peptide
# T2 peptide: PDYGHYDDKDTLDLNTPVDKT
# T3: peptide A9 (… with Ala at position 5, Y3 of the epitope) (human)
# T3 construct: The label A9 and position 5 follow from 'Peptides A2-A13 contained a single alanine substitution at each amino acid position from 12 to 1 respectively'
# T3 peptide: Biotin-SGSGVREEAFPPKVLC
# T4: peptide A8 (… with Ala at position 6, F4 of the epitope) (human)
# T4 construct: The label A8 and position 6 follow from 'Peptides A2-A13 contained a single alanine substitution at each amino acid position from 12 to 1 respectively'
# T4 peptide: Biotin-SGSGVREEYAPPKVLC
# Experiments:
# human C5a receptor [1] = target: T1, human C5a receptor; experiment: saturation binding to human neutrophils at 4 C, flow cytometry
# Method: Human neutrophils, isolated as described above, were resuspended in dPBS and 1×10⁵ cells (in 25 μl) were dispensed into wells of a 96-well plate. An equal volume (25 μl) of 2× antibody (diluted in PBS) was added to each well. The final antibody concentration using 2-fold serial dilution ranged from 40 to 0 ug/ml (using unlabelled hAb-Q, hAb-J and 7F3). Cells and antibody were incubated for 20 min times at 4° C. After incubation, 100 μl PBS+1% BCS was added to each well and the plate centrifuged at 2,000 rpm for 3 min. […] The cells were washed once as above and resuspended in PBS+1% FCS for analysis by flow cytometry. FSC v SSC scatter was used to identify neutrophils, with the Median Fluorescence Intensity (MFI) determined for each sample. EC50 values were determined by fitting data (MFI—background vs log₁₀[antibody concentration]) to the sigmoidal dose-response (variable slope) i.e. 4-parameter logistic equation using GraphPad Prism (v4.0) software. Bₘₐₓ and KD were determined by fitting data to the one-site binding hyperbola equation.
# [2] = target: T2, peptide PEP1 (residues 9-29 of human …); experiment: ELISA, PEP1 coated at 10, 2 and 1 µg/ml
# Method: A 384-well MaxiSorp plate (Nunc) was coated with a peptide corresponding to residues 9-29 of human C5aR (PEP1), at concentrations of 1-15 μg/ml in PBS/0.01% Tween-20 at 37° C. for 1.5 hours, then washed 3 times. The plate was blocked with 20 μl of blocking buffer (1% w/v BSA in PBS) per well for overnight at 4° C. The plate was washed 3 times with PBS/Tween buffer (0.05% v/v Tween-20 in PBS). 20 μl antibody (final concentration 5 μg/ml) was added to each well and the plate was incubated for 2 hours at 37° C. The plate was washed 3 times as above then 20 μl HRP-conjugated anti-human IgG kappa (1:8000 dilution in PBS/Tween 20) or HRP-conjugated anti-mouse IgG (1:7500 dilution) was added to each well. After a 2 hour incubation at room temperature the plate was washed 4 times (as above). The presence of peroxidase was detected by adding 20 μl of freshly prepared TMB Substrate reagent (BD Opt EIA) to each well and incubating at room temperature for 20 min. Finally after stopping the reaction with 20 μl 1M H₂SO₄ per well the plate was read at 450 nm (reference 620 nm) in a plate reader.
# However, the anti-C5aR (CD88) mAb S5/1 (AbD Serotec, Cat No. MCA1283) which was raised against the human C5aR N-terminal peptide 1-31 did bind PEP1 at 5 μg/ml as expected.
# [3] = target: T3, peptide A9 (… with Ala at position 5, …); experiment: peptide ELISA, alanine-scan peptides
# Method: (§1) A 384 well streptavidin-coated plate (Nunc) was blocked with 20 μl of blocking buffer (1% w/v BSA in PBS) per well. The plate was washed 4 times with PBS/Tween20 buffer (0.1% v/v Tween 20 in PBS). 20 μl of diluted peptide solution was transferred into a well and the plate incubated for 1 hour at room temperature. After washing the plate 4 times (as above) 20 μl antibody (0.5, 1, 1.25, 2.5 or 5 μg/ml) was added to the well and the plate was incubated for 1 hour at 20° C. The plate was washed 4 times as above then 20 μlHRP-conjugated anti-mouse IgG (1:5000 dilution in PBS/Tween 20) was added to each well. After a 1 hour incubation at room temperature the plate was washed 3 times (as above) then twice with PBS to remove traces of Tween. The presence of peroxidase was detected by adding 20 μl of freshly prepared TMB Substrate reagent (BD Opt EIA) to each well and incubating at room temperature for 20 min. Finally the plate was read at 650 nm/450 nm.
# (§2) Peptide A1 had no A1a substitution and peptide A14 was a scrambled version of peptide A1. Peptides A2-A13 contained a single alanine substitution at each amino acid position from 12 to 1 respectively. Binding of antibodies to the peptides coated on ELISA plates was carried out as described above.
# [4] = target: T4, peptide A8 (… with Ala at position 6, …); experiment: peptide ELISA, alanine-scan peptides
# Method: as §1, §2
# human C5a receptor [5] = target: T1, human C5a receptor; experiment: PK/PD model (NONMEM) fitted to serum concentration and receptor occupancy in hC5aR transgenic mice, pharmacology study column
# Source text: NONMEM VI (non-linear mixed effects modelling software) with first order conditional estimation (FOCE) was used for modelling, and S-PLUS® 8.0 (Insigthful) was used for graphics and data handling. Evaluation of—and discrimination between—intermediate models was based on objective function values and standard graphical evaluation methods. In terms of objective function value, changes in this value were assumed to be chi-squared distributed (for nested models), and criteria for expanding the model were defined and used accordingly.
# Toxicokinetics from the toxicology study in transgenic mice and PK/PD data from the pharmacology study was integrated to assess the relationship between pharmacokinetics and occupancy. […] This is consistent with other studies, observing higher clearance for high doses, due to saturation of the FcRN receptor (Hansen and Balthasar, 2002).
Binder,EC50 (human C5a receptor [1]),Kd (human C5a receptor [1]),binding result [2],binding result [3],binding result [4],Kd (human C5a receptor [5]) [µg/mL]
"mouse anti-C5aR monoclonal antibody 7F3 (antibody, V domains shown, Mouse monoclonal from hybridoma ECACC 00110609; also called m7F3; mouse 7F3) VH: QVQLQQSGPELVKPGASVKISCKASGYAFSNSWMNWVKQRPGKGLEWIGRIYPGDGDTKYNGKFKGKATLTADKSSSTAYMQLSSLTSEDSAVYFCARFLLISTVTAVDYWGQGTTLTVSS VL: DVVMTQSPLSLPVSLGNQASISCRSSQSLVHSNGNTYLHWYLQKPGQSPKLLIYKVSNRFSGVPDRFSGSGSGTDFSLKISRVEAEDLGVYFCSQSTLVPLTFGAGTKLELK",8 to 10 nM,8 to 10 nM,–,–,–,–
"humanized anti-C5aR antibody hAb-J (antibody, human IgG4 S228P, kappa, also called antibody J) light: DVVMTQSPLSLPVTLGEPASISCRSSQSLVHSNGNTYLHWYLQKPGQSPQLLIYKVSNRFSGVPDRFSGSGSGTDFTLKISRVEAEDVGVYFCSQSTLVPLTFGQGTKLEIKTVAAPSVFIFPPSDEQLKSGTASVVCLLNNFYPREAKVQWKVDNALQSGNSQESVTEQDSKDSTYSLSSTLTLSKADYEKHKVYACEVTHQGLSSPVTKSFNRGEC heavy: not shown",–,–,no binding (tested: 5 µg/ml),no binding,no binding,–
"humanized anti-C5aR antibody hAb-Q (antibody, human IgG4 S228P, kappa, IgG4 with the Ser228Pro mutation; also called antibody Q; anti-C5aR ab) light: DVVMTQSPLSLPVTLGEPASISCRSSQSLVHSNGNTYLHWYLQKPGQSPQLLIYKVSNRFSGVPDRFSGSGSGTDFTLKISRVEAEDVGVYFCSQSTLVPLTFGQGTKLEIKRTVAAPSVFIFPPSDEQLKSGTASVVCLLNNFYPREAKVQWKVDNALQSGNSQESVTEQDSKDSTYSLSSTLTLSKADYEKHKVYACEVTHQGLSSPVTKSFNRGEC heavy: not shown",20 nM to 25 nM (2×) and ~3 µg/mL,20 nM to 25 nM (2×) and ~3 µg/mL,no binding (tested: 5 µg/ml),no binding,no binding,0.175
